Measurements: PMC5053885

Each substance was assayed against Karyopherin-β2 (human) (UniProt Q92973) (assay: ITC).
Chain of UniProt Q92973 (Q92973 9-898): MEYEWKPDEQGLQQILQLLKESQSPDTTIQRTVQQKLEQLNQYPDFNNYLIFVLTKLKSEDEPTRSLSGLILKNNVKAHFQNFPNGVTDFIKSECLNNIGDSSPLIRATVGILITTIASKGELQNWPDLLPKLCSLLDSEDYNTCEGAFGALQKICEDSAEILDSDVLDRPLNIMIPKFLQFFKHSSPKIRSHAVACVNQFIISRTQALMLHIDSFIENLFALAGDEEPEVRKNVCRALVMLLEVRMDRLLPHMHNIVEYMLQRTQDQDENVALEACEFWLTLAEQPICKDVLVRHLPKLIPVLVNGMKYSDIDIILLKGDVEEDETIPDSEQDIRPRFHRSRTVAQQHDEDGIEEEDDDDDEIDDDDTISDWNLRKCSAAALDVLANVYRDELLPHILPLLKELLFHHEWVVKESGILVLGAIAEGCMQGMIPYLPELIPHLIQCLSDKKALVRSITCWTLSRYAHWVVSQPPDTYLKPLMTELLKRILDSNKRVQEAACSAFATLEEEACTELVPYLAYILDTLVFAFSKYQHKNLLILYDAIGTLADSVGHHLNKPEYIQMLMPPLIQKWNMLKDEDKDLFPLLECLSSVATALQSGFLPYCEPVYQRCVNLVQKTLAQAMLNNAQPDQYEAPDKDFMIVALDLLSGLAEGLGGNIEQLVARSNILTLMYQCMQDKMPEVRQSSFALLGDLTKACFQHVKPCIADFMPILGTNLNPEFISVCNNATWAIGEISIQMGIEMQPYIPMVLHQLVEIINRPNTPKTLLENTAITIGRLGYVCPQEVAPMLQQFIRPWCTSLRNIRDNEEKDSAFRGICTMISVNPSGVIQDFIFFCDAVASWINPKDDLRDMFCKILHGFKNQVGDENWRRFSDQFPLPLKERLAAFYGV
“MBP-H3 Tail(1–47) K23A (from UniProt P68431 2-48) (domain or fragment)” was tested, and the Kd was 148 nM. Substance “MBP-H3 Tail(1–47) K23A, R26A, K27A (from UniProt P68431 2-48) (domain or fragment)” has a Kd of 119 nM. For “MBP-H3 Tail(1–47) K18A (from UniProt P68431 2-48) (domain or fragment)”, the Kd was 120 nM. With “MBP-H3 Tail(1–47) wild-type (from UniProt P68431 2-48) (domain or fragment)” the Kd was 77.1 nM. “MBP-H3 Tail(1–47) R26A (from UniProt P68431 2-48) (domain or fragment)” showed a Kd of 122 nM. With “MBP-H3 Tail(1–47) K27A (from UniProt P68431 2-48) (domain or fragment)” the Kd was 133 nM. For “MBP-H3 Tail(1–47) R17A (from UniProt P68431 2-48) (domain or fragment)”, the Kd was 389 nM.
